The numbers were not newly measured in publication PMC4705221, which cites them from elsewhere.

pKd: −log10 of the molar value. Where two headings read alike, the source gives them in different places.

In series [1] the target is MK2 (Homo sapiens) (UniProt P49137).
Series [2] has the same target. This is another data set of the same source.

Chain of UniProt P49137 (P49137 whole entry): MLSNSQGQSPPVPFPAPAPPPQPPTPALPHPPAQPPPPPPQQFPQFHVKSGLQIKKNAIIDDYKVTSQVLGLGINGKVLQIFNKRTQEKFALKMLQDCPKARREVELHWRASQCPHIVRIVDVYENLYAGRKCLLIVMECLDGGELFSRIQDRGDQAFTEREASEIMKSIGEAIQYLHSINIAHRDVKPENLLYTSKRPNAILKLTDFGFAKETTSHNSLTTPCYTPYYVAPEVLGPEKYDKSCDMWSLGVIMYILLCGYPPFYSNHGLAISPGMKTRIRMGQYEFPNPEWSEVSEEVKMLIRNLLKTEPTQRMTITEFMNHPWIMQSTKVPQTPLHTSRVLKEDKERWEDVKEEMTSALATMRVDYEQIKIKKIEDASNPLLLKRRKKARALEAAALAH

Broadly, the pKd is the Kd on a negative log10 scale, so that one unit is a factor of ten. Turning to p38α (from UniProt Q16539), the negative-log Kd (pKd) with MK2 (Homo sapiens) [1] was 7.22; in the series with MK2 (Homo sapiens) [2], 8.60.
